Legend:
MS2 coat protein [1] = assay: apparent KD of MS2 coat protein, switch ON state; designed switch direction (-1 OFF switch, 1 ON switch): -1; higher = weaker reporter binding; settings: FMN input: 0 or 200 uM; Eterna round: R93 (includes R88 designs)
Method in brief: (§1)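 Designed RNA switches were transcribed on-chip from Illumina sequencing clusters and titrated with SNAP-549-labelled MS2 coat protein in twofold steps from 0.7 or 1.5 nM up to 3 µM. Each step lasted 0.8–1.5 h at first and 10–20 min by the end, in 100 mM Tris-HCl pH 7.5, 80 mM KCl and 4 mM MgCl2, without or with constant ligand. Apparent KD is the median, for each design, of fits to normalised cluster binding curves.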

MS2 coat protein [2] = assay: apparent KD of MS2 coat protein, switch OFF state (with FMN for OFF switches, without FMN for ON switches); designed switch direction (-1 OFF switch, 1 ON switch): -1; higher = weaker reporter binding; settings: FMN input: 0 or 200 uM; Eterna round: R93 (includes R88 designs)
Method in brief: as §1

Row | Sequence | apparent KD of MS2 coat protein (MS2 coat protein [1]) | apparent KD of MS2 coat protein (MS2 coat protein [2])
1 | AGUCGGCGAGGAUAUACAUGAGGAUCACCCAUGUGAGAGAAAAAAGUGAGUUAGACAUGUAGAAGGCGCUGACA [JL Lego Mod 8] | 54 nM | 26.8 nM
2 | AGUCUGAGAGGAUAUACAUGGGAAAAAAAAGUAAGAUCCCUACAUGAGGAUCACCCAUGUAGAAGGCUCUGACA [Ex2 Design 143: Sub-opt 7] | 27.4 nM | 17.9 nM
3 | AGUUGGCGAGGAUAUACAUGAGGAUCACCCAUGUGAAAGAAAAACUCGAAAGAGAAAAGUAGAAGGCGCUGACA [Mat - Exclusion 3 - Eli mod - D93] | 16.8 nM | 37.6 nM
4 | AGUUGGCGAGGAUAUACAUGAGGAUCACCCAUGUGAGAGAAAAAAGUGAGAAAGAAAUGUAGAAGGCGCUCACA [JL Lego Mod 13] | 62.8 nM | 37.5 nM
5 | AGUUGGCGAGGAUAUACAUGAGGAUCACCCAUGUGAGAGAAUAAAGUGAGAAAGAAAAGUAGAAGGCGCUCACA [JL Lego Mod 16] | 60.3 nM | 45.1 nM
6 | AUAAAUCGAGGAUAUACAUGAGGAUCACCCAUGUAAAAAAAAAAAAAAUCCUCAGGAAGUAGAAGGCGAAAUAA [JR_Exc003_Sub018] | 11.7 nM | 23.3 nM
7 | AUAAAUCGAGGAUAUACAUGAGGAUCACCCAUGUAAAUAAAUAAAUAAUCCUCAGGAAGUAGAAGGCGAAAUAA [JR_Exc003_Sub019] | 15.1 nM | 27.2 nM
8 | AUAAGUGCAGGAUAUACAAAAUGCUAGCGAAAGCUAGCAUAACAUGAGGAUCACCCAUGUAGAAGGGCACAAUA [Tetraloop hairpin BlockHead... 61% 1] | 23.5 nM | 18.4 nM
9 | AUAGGCCAAGGAUAUACAUGAGGAUCACCCAUGUAAAUAACUCGAUCAAAAUAAACAAGUAGAAGGUGGAAUAA [JR_Exc003_Sub204] | 25.1 nM | 29.4 nM
10 | AUAGGCCUAGGAUAUACAUGAGGAUCACCCAUGUAAACCGAUAGAUCACGGUAAACGUGUAGAAGGAGGAAUAA [JR_Exc003_Sub207] | 24.4 nM | 20.6 nM
11 | AUAGGCCUAGGAUAUACAUGAGGAUCACCCAUGUAAAUAAAUCGAUCAAAAUAAACGUGUAGAAGGAGGAAUAA [JR_Exc003_Sub205] | 33.5 nM | 38.3 nM
12 | AUCAUGUAAGGAUAUAAAAGAAAAGAAAAGAAAGAAAAGAAUUAGAAGGUACAUGAGGAUCACCCAUGUAAGAA [EteRNA is fun!] | 30.3 nM | 17.9 nM
13 | AUCAUGUUAGGAUAUAUAAGAAAAGAAAAGAAAGAAAAGAAAUAGAAGGAACAUGAGGAUCACCCAUGUAAGAA [EteRNA is fun!] | 17.5 nM | 23.1 nM
14 | AUCGAUCGAGGAUAUACAUGAGGAUCACCCAUGUAAAAAAAAAAAAAGGCCUCAGGACGUAGAAGGCGACGCAA [JR_Exc003_Sub402] | 16.3 nM | 22.6 nM
15 | AUCUACCUAGGAUAUACAUGAGGAUCACCCAUGUACAGAUACAACUAGGGAAACACACGUAGAAGGAGGUAGAU [JR_Exc003_Sub1207] | 15.6 nM | 37.3 nM
16 | AUUAUGUAAGGAUAUGUACGAACAACAAAACAAAUAACGGUACAGAAGGUACAUGAGGAUCACCCAUGUAUAAA [May 71] | 23.6 nM | 21.4 nM
17 | CAGUACUGAGGAUAUACAUGAGGAUCACCCAUGUAUUCCAGCUAGGAAACUAGCAAAUGUAGAAGGCAGUACUG [Ex3: 825] | 14 nM | 14.8 nM
18 | CCAAGACAUGAGGAUCACCCAUGUGAGGAUAUAGGUGUAUGCAAAAAAAAGUUAAAAACUAGAAGGCACAGAAA [JR_Exc001_Sub306] | 30.7 nM | 25 nM
19 | CGCAAGUCAGGAUAUUCGACAGGUAAAUCAGUGGAUCAGAAGGAGAAGGGACAUGAGGAUCACCCAUGUAUGUA [JR_Exc004_Sub407] | 49.4 nM | 23.1 nM
20 | CUCAAGUAAGGAUAUGUAAGAAAAGAAGAGAAAGAAAAGAAACAGAAGGUACAUGAGGAUCACCCAUGUAAGAA [EteRNA is fun!] | 30.4 nM | 28.2 nM
